Results: US20050169909A1 (TANOX, published 2005)
Changes are numbered by the printed parent chain. Like-named read-outs stand apart in the source and are kept apart here.

B1: C21 (Fab, V domains shown)
VH: QVQLQQSGAELMKPGASVKISCKTTGYTFSMYWLEWVKQRPGHGLEWVGEISPGTFTTNYNEKFKAKATFTADTSSNTAYLQLSGLTSEDSAVYFCARFSHFSGSNYDYFDYWGQGTSLTVSS
VL: DILLTQSPAILSVSPGERVSFSCRASQSIGTNIHWYQQRTDGSPRLLIKYASESISGIPSRFSGSGSGTEFTLNINSVESEDIADYYCQQSDSWPTTFGGGTKLEIK
notes: also called parent Fab of TES-C21; murine TES-C21 Fab
B2: murine anti-IgE monoclonal antibody TES-C21 (antibody, V domains shown)
VH: B1 VH
VL: B1 VL
notes: Murine parent antibody; also called murine mAb TES-C21; parent TES-C21
B3: humanized TES-C21 Fab clone 136 (Fab, V domains shown)
VH: QVQLVQSGAEVMKPGSSVKVSCKASGYTFSMYWLEWVRQAPGHGLEWMGEISPGTFTTNYNEKFKARVTFTADTSTSTAYMELSSLRSEDTAVYYCARFSHFSGSNYDYFDYWGQGTLVTVSS
VL: EIVMTQSPATLSVSPGERATLSCRASQSIGTNIHWYQQKPGQAPRLLIYYASESISGIPARFSGSGSGTEFTLTISSLQSEDFAVYYCQQSDSWPTTFGGGTKVEIK
notes: Retains 5 murine heavy chain framework residues; light chain framework is 100% human; also called Clone ID #136; Humanized clone 136
B4: Anti-IgE CL-2C (antibody, V domains shown)
VH: B3 VH with M31W, S52D
VL: EIVMTQSPATLSVSPGERATLSCRASQSIGTNIHWYQQKPGQAPRLLIYYASESISGIPARFSGSGSGTEFTLTISSLQSEDFAVYYCQQSWSWPTTFGGGTKVEIKT
notes: ATCC PTA-5678; also called MAb 2 (CL-2C); clone 2C
B5: Anti-IgE CL-5A (antibody, V domains shown)
VH: B3 VH with M31W, S52E, F56E
VL: B4 VL
notes: ATCC PTA-5679; also called MAb 1(CL-5A); clone 5A
B6: Anti-IgE CL-5I (antibody, V domains shown)
VH: B3 VH with S52D, T57E
VL: B4 VL
notes: ATCC PTA-5680; also called MAb 3 (CL-5I)

Key:
[1] = target: T1, recombinant human IgE, SE44 (human, UniProt P01854-1 1-428); test: ELISA titration of Fab on plate-coated SE44 (Example 6)
T1 construct: The IgE used as antigen in the ELISA screens (coated, or biotinylated); also called monoclonal human IgE (SE44); biotinylated SE44
Method: (§1) The constructed library was subjected to an ELISA screen for improved binding to the recombinant human IgE, SE44. Clones with binding affinity greater than murine TES-C21 Fab were isolated and sequenced. Clone ID #4, 49, 72, 76, and 136 were further characterized.
(§2) Plates were coated with 0.25 ug/mL (for purified Fab 0.1 ug/ml) SE44 in carbonate coating buffer overnight at 4° C. Coating solution was removed and the plates were blocked with 200 uL/well 3% BSA/PBS for 1 hour at 37° C.

[2] = target: T1, recombinant human IgE, SE44; test: as above; remark: listed apart in the source
Method: as §1, §2

human IgE [3] = target: T2, human IgE (human, UniProt P01854-1 1-428); test: method not stated at the table (Example 10 lists Biacore analysis); target IgE taken from context
T2 construct: it may be SE44; also called intact human IgE; biotinylated IgE

human IgE [4] = target: T2, human IgE; test: soluble receptor assay: inhibition of the binding of biotinylated IgE to plate-coated FcεRI alpha chain (Example 8)
Method: A 96 well assay plate suitable for ELISA was coated with 0.05 mL 0.5 μg/mL FcεRI alpha-chain receptor coating buffer (50 mM carbonate/bicarbonate, pH 9.6) for 12 hours at 4-8° C. The wells were aspirated and 25 μL blocking buffer (PBS, 1% BSA, pH 7.2) was added and incubated for 1 hour at 37° C. In a separate assay plate the samples and reference TES-C21 MAbs were titered from 200 to 0.001 μg/mL by 1:4 dilutions with assay buffer (0.5% BSA and 0.05% Tween 20, PBS, pH 7.2) and an equal volume of 100 ng/mL biotinylated IgE was added and the plate incubated for 2-3 hours at 25° C. The FcεRI—coated wells were washed three times with PBS and 0.05% TWEEN 20 and 50 μL from the sample wells were transferred and incubated with agitation for 30 minutes at 25° C. Fifty/μL/well of 1 mg/mL Streptavidin-HRP, diluted 1:2000 in assay buffer, was incubated for 30 minutes with agitation and then the plate was washed as before. Fifty μL/well of TMB substrate was added and color was developed. The reaction was stopped by adding an equal volume of 0.2 M H₂SO₄ and the absorbance measured at 450 nm.

human IgE [5] = target: T2, human IgE; test: relative to parent TES-C21

T1 sequence (P01854 other isoform, or with tags, fused parts or gaps): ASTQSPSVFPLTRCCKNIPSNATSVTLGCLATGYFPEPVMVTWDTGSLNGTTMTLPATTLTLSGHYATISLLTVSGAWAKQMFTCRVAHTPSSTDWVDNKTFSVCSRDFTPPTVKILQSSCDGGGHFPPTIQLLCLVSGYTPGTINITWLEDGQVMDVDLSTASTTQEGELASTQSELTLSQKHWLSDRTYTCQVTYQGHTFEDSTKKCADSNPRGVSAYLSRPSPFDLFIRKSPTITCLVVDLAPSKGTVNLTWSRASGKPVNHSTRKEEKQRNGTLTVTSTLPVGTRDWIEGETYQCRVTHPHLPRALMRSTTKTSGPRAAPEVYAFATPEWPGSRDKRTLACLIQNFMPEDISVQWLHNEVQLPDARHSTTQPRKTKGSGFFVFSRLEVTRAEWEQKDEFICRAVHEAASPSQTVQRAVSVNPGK
T2 sequence (P01854 other isoform, or with tags, fused parts or gaps): as above

Binder	EC50 (read off the curve) [1] [mg/L]	EC50 (read off the curve) [2] [mg/L]	Kd (human IgE [3]) [pM]	IC50 (read off the curve) (human IgE [4]) [mg/L]	Fold Increase in Binding Affinity (human IgE [5]) [fold]
B1	~0.05	~0.05			
B2			614		
B3		~0.04			
B4			1.47	~0.3	417
B5			0.158		3890
B6			3.2		191
